Assay results published in publication PMC8960383, “A Nanobody-Based Toolset to Monitor and Modify the Mitochondrial GTPase Miro1” (Frontiers in Molecular Biosciences, 2022).

Key:
[1] = target: T1, eGFP-cGTPase-TMD (Homo sapiens, UniProt Q8IXI2); assay: pull-down; Nbs coupled to NHS-Sepharose (nanotraps) incubated 16 h at 4°C with the soluble fraction of HEK293 cells transiently expressing GFP-Miro1, GFP-tagged Miro1 deletion constructs or GFP (lysis buffer with 1% Triton X-100); immunoblot of bound fractions with anti-GFP and anti-GAPDH; conditions: one partner purified
T1 construct: human Miro1 isoform 1 (UniProtKB Q8IXI2-1), C-terminal GTPase domain with the transmembrane domain; made from the GFP-Miro1 plasmid by site directed mutagenesis; also called C-terminal GTPase domain of Miro1; source: HEK293, transfected, in lysate; HeLa, transfected, in living cells; not shown: GFP, N-terminal, kept
T1 sequence (Q8IXI2 whole entry, looked up, the tested form may be a part, canonical isoform): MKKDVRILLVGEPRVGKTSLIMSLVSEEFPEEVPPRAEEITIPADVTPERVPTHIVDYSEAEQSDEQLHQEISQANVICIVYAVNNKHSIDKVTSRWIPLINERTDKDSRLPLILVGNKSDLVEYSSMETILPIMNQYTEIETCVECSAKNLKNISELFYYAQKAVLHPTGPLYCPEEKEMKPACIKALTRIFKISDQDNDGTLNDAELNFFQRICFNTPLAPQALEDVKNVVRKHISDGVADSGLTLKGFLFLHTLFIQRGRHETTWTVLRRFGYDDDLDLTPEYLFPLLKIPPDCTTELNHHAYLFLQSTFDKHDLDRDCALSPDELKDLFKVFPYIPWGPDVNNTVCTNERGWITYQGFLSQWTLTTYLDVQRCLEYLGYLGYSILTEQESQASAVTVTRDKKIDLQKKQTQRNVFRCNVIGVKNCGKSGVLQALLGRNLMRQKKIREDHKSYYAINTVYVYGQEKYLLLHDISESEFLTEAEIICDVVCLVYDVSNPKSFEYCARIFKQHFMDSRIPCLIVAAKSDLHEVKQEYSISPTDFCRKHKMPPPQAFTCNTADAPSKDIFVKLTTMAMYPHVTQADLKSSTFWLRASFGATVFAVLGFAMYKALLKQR

[2] = target: T1, eGFP-cGTPase-TMD; assay: live-cell fluorescence imaging (relocalisation of the chromobody); TagRFP chromobodies transiently co-expressed with GFP-Miro1 or GFP-tagged Miro1 deletion constructs in HeLa cells; conditions: partners not purified
[3] = target: GFP-Miro1 (human) (UniProt Q8IXI2)
Chain of GFP-Miro1 (human) (Q8IXI2 whole entry): as the sequence (Q8IXI2 whole entry, looked up, the tested form may be a part, canonical isoform) above

[4] = target: endogenous Miro1 (human (endogenous in HEK293 and HeLa)) (UniProt Q8IXI2)
Chain of endogenous Miro1 (human (endogenous in HEK293 and HeLa)) (Q8IXI2 whole entry, canonical isoform): as the sequence (Q8IXI2 whole entry, looked up, the tested form may be a part, canonical isoform) above

[5] = target: T2, Miro1 isoform 2 (Homo sapiens (endogenous, HEK293), UniProt Q8IXI2-2); assay: affinity purification with mass spectrometry; mono- and bivalent M41 and M114 nanotraps incubated with HEK293 lysate, compared to control nanotraps; three technical replicates; label-free quantification, iBAQ; conditions: one partner purified
T2 construct: endogenous human Miro1 isoform 2, identified by mass spectrometry (search against the Uniprot Homo sapiens database; one unique peptide); source: endogenous, HEK293 lysate
T2 sequence (Q8IXI2 other isoform, or with tags, fused parts or gaps): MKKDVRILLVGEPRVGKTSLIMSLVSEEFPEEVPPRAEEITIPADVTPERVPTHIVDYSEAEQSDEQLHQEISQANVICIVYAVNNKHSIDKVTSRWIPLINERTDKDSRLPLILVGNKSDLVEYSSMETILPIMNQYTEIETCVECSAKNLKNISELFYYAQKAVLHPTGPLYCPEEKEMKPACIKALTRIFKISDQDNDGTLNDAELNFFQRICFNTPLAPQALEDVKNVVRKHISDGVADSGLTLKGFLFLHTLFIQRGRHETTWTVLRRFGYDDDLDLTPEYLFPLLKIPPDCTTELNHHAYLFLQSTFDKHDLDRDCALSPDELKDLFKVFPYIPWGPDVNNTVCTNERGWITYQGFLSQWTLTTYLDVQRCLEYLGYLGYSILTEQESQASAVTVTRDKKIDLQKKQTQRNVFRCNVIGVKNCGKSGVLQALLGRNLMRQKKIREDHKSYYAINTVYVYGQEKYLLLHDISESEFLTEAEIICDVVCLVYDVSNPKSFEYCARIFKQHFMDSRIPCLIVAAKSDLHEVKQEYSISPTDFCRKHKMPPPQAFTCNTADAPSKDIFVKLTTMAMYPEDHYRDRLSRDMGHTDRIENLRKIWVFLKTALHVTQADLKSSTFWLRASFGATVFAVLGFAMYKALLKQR

[6] = target: T3, Miro1 isoform 3 (Homo sapiens (endogenous, HEK293), UniProt Q8IXI2-3); assay: as above; conditions: one partner purified
T3 construct: endogenous human Miro1 isoform 3, identified by mass spectrometry (search against the Uniprot Homo sapiens database; 31 razor peptides); source: endogenous, HEK293 lysate
T3 sequence (Q8IXI2 other isoform, or with tags, fused parts or gaps): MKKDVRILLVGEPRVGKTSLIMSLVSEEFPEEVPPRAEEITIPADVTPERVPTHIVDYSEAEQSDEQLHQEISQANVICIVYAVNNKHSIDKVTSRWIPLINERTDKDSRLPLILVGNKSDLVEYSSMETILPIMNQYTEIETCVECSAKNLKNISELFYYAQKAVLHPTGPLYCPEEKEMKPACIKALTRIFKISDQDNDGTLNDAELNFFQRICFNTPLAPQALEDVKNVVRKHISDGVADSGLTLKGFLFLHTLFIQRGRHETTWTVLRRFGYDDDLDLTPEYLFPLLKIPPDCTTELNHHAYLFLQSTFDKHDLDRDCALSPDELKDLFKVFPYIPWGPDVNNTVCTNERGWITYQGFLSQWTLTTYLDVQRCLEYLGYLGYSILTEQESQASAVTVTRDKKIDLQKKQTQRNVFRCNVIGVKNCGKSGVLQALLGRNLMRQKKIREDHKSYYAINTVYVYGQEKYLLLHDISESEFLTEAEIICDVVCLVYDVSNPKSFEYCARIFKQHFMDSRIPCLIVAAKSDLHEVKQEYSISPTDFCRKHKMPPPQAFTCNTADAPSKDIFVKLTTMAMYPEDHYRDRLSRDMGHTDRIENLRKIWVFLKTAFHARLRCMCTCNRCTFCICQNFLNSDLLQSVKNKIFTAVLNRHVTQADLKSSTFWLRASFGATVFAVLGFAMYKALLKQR

Binder	binding result [1]	binding result [2]	further results
Miro1-specific nanobody M11 (VHH, Cloned into pHEN6C; also called M11-Nb; M11 nanotrap; source: E. coli, purified (IMAC, SEC)) VHH: QVQLVESGGGSVQPGGSLRLSCAASGFSFSSNVMSWARQAPGKGLEWVSGIYVDGRTHYADSVKGRFTISRDNAKNTVYLQMNSLKPEDTAVYYCAAAGDLSGYSFSPYDYDYWGQGTQVTVSS	binds	–	–
Miro1-specific nanobody M189 (VHH, Cloned into pHEN6C; also called M189-Nb; M189 nanotrap; source: E. coli, purified (IMAC, SEC)) VHH: EVQLVESGGGLVQPGGSLRLSCTASGFPVSSAAMSWARQSPGKELEWVSGIYTDGSADYADSLKGRFTISRDDVENTINLQMNNLKPEDTAIYYCNANFFEGSWYDYWGQGSPVTVSS	binds	–	–
Miro1-specific nanobody M85 (VHH, Cloned into pHEN6C; also called M85-Nb; M85 nanotrap; source: E. coli, purified (IMAC, SEC)) VHH: DVQLVESGGGKVQSGGSLRLSCAASGSKLDDYSIGWFRQAPGKGREGISCITMKTGSFEYVDSVKGRFTISADNAKNTVHLQMNNLKPEDTGIYYCAALRSRGLFCVTSPYEYDLWGQGSPVTVSS	binds	–	–
M85 chromobody (VHH, as the VHH of m11 (M85); cloned into the plasmid described as PCNA-chromobody (Panza et al., 2015); also called M85-Cb; source: HeLa, transfected, in living cells) VHH: DVQLVESGGGKVQSGGSLRLSCAASGSKLDDYSIGWFRQAPGKGREGISCITMKTGSFEYVDSVKGRFTISADNAKNTVHLQMNNLKPEDTGIYYCAALRSRGLFCVTSPYEYDLWGQGSPVTVSS	–	binds	–
Fbox-M114 (VHH) VHH: EVQLQESGGGLVQPGGSLRLSCTASGFPVSSAAMSWARQSPGKELEWVSGIYTDGSADYADSLKGRFTISRDDVENTINLQMNSLKPEDTAVYYCKTDWWAGPSGYVAVWGQGTLVTVSS	–	–	reduction of the GFP signal in HeLa cells coexpressing the Fbox-Nb construct and GFP-Miro1 (targeted degradation) [3]: 80%; decrease of the anti-Miro1 IF signal in HeLa cells 24 h after transfection of the Fbox-Nb (targeted degradation of endogenous Miro1; Fbox-NR control less than ∼4%) [4]: 30%
M114 chromobody (VHH, as the VHH of m12 (M114); cloned into the plasmid described as PCNA-chromobody (Panza et al., 2015); also called M114-Cb; M114-CB; source: HeLa, transfected, in living cells) VHH: EVQLQESGGGLVQPGGSLRLSCTASGFPVSSAAMSWARQSPGKELEWVSGIYTDGSADYADSLKGRFTISRDDVENTINLQMNSLKPEDTAVYYCKTDWWAGPSGYVAVWGQGTLVTVSS	–	binds	–
Miro1-specific nanobody M114 (VHH, Cloned into pHEN6C; also called M114-Nb; M114 nanotrap; source: E. coli, purified (IMAC, SEC)) VHH: EVQLQESGGGLVQPGGSLRLSCTASGFPVSSAAMSWARQSPGKELEWVSGIYTDGSADYADSLKGRFTISRDDVENTINLQMNSLKPEDTAVYYCKTDWWAGPSGYVAVWGQGTLVTVSS	binds	–	binding result [5]: binds; binding result [6]: binds
Fbox-M41 (VHH) VHH: EVQLVESGGGLVHPGGSLRISCAASGFSFNSSAMSWARQAPGKGLEWVSGIQADGTTGYAHSVKGRFNISRDNAKNIVYLQMSSLKPEDSAVYYCAKEGWSTVVFGSRDYWGQGTQVTVSS	–	–	reduction of the GFP signal in HeLa cells coexpressing the Fbox-Nb construct and GFP-Miro1 (targeted degradation) [3]: 50%; decrease of the anti-Miro1 IF signal in HeLa cells 24 h after transfection of the Fbox-Nb (targeted degradation of endogenous Miro1; Fbox-NR control less than ∼4%) [4]: 16%
M41 chromobody (VHH, as the VHH of m10 (M41); cloned into the plasmid described as PCNA-chromobody (Panza et al., 2015); also called M41-Cb; source: HeLa, transfected, in living cells) VHH: EVQLVESGGGLVHPGGSLRISCAASGFSFNSSAMSWARQAPGKGLEWVSGIQADGTTGYAHSVKGRFNISRDNAKNIVYLQMSSLKPEDSAVYYCAKEGWSTVVFGSRDYWGQGTQVTVSS	–	binds	–
Miro1-specific nanobody M41 (VHH, Cloned into pHEN6C; also called M41-Nb; M41 nanotrap; source: E. coli, purified (IMAC, SEC)) VHH: EVQLVESGGGLVHPGGSLRISCAASGFSFNSSAMSWARQAPGKGLEWVSGIQADGTTGYAHSVKGRFNISRDNAKNIVYLQMSSLKPEDSAVYYCAKEGWSTVVFGSRDYWGQGTQVTVSS	binds	–	–
